± gives the uncertainty stated by the source.

The chains are these.
B1: Nucleolar transcription factor 1, residues 408 to 469; numbered along this chain, P17480 (parent)
chain: KRPVSAMFIFSEEKRRQLQEERPELSESELTRLLARMWNDLSEKKKAKYKAREAALKAQSER

Variants of B1 are the subject of the series. The series can be described thus: abundance fitness (aPCA) (normalised: wild type 0, dead -1); higher = more abundant; growth selection in yeast, the domain comes from the species named. The note with it: Homo sapiens.
In the case of KRPVSAMFIFSEEGRRQLQEERPELSESELTRLLARMWNDLSEKKKAKYKAREAALKAQSER [K14G], the abundance fitness was -0.238 ± 0.058.

In the case of KRPVSAMFIFSEEHRRQLQEERPELSESELTRLLARMWNDLSEKKKAKYKAREAALKAQSER [K14H], the abundance fitness is 0.062 ± 0.088. As to KRPVSAMFIFSEENRRQLQEERPELSESELTRLLARMWNDLSEKKKAKYKAREAALKAQSER [K14N], the abundance fitness is -0.086 ± 0.075. The same measure for KRPVSAMFIFSEEMRRQLQEERPELSESELTRLLARMWNDLSEKKKAKYKAREAALKAQSER [K14M]: -0.044 ± 0.074. The same measure for KRPVSAMFIFSEEWRRQLQEERPELSESELTRLLARMWNDLSEKKKAKYKAREAALKAQSER [K14W]: -0.167 ± 0.067; for KRPVSAMFIFSEEQRRQLQEERPELSESELTRLLARMWNDLSEKKKAKYKAREAALKAQSER [K14Q]: -0.064 ± 0.079; for KRPVSAMFIFSEERRRQLQEERPELSESELTRLLARMWNDLSEKKKAKYKAREAALKAQSER [K14R]: -0.034 ± 0.046. The result for KRPVSAMFIFSEEFRRQLQEERPELSESELTRLLARMWNDLSEKKKAKYKAREAALKAQSER [K14F] reads -0.034 ± 0.08; that for KRPVSAMFIFSEEPRRQLQEERPELSESELTRLLARMWNDLSEKKKAKYKAREAALKAQSER [K14P], -0.956 ± 0.092; that for KRPVSAMFIFSERKRRQLQEERPELSESELTRLLARMWNDLSEKKKAKYKAREAALKAQSER [E13R], -0.207 ± 0.059. For the variant KRPVSAMFIFSEMKRRQLQEERPELSESELTRLLARMWNDLSEKKKAKYKAREAALKAQSER [E13M], the abundance fitness was -0.124 ± 0.071. The result for KRPVSAMFIFSEGKRRQLQEERPELSESELTRLLARMWNDLSEKKKAKYKAREAALKAQSER [E13G] reads -0.22 ± 0.043; that for KRPVSAMFIFSENKRRQLQEERPELSESELTRLLARMWNDLSEKKKAKYKAREAALKAQSER [E13N], -0.344 ± 0.14.

Take KRPVSAMFIFSEVKRRQLQEERPELSESELTRLLARMWNDLSEKKKAKYKAREAALKAQSER [E13V]: the abundance fitness is -0.187 ± 0.079. The result for KRPVSAMFIFSEDKRRQLQEERPELSESELTRLLARMWNDLSEKKKAKYKAREAALKAQSER [E13D] reads -0.04 ± 0.1; that for KRPVSAMFIFSETKRRQLQEERPELSESELTRLLARMWNDLSEKKKAKYKAREAALKAQSER [E13T], -0.167 ± 0.089. Take KRPVSAMFIFSEIKRRQLQEERPELSESELTRLLARMWNDLSEKKKAKYKAREAALKAQSER [E13I]: the abundance fitness was -0.177 ± 0.16. The result for KRPVSAMFIFSEHKRRQLQEERPELSESELTRLLARMWNDLSEKKKAKYKAREAALKAQSER [E13H] reads -0.22 ± 0.19. Regarding KRPVSAMFIFSEWKRRQLQEERPELSESELTRLLARMWNDLSEKKKAKYKAREAALKAQSER [E13W], the abundance fitness was -0.355 ± 0.054. Turning to KRPVSAMFIFSEKKRRQLQEERPELSESELTRLLARMWNDLSEKKKAKYKAREAALKAQSER [E13K], the abundance fitness was -0.106 ± 0.073. On to KRPVSAMFIFSELKRRQLQEERPELSESELTRLLARMWNDLSEKKKAKYKAREAALKAQSER [E13L], for which the abundance fitness is -0.277 ± 0.063. The same measure for KRPVSAMFIFSEPKRRQLQEERPELSESELTRLLARMWNDLSEKKKAKYKAREAALKAQSER [E13P]: -0.663 ± 0.074.

Turning to KRPVSAMFIFSEAKRRQLQEERPELSESELTRLLARMWNDLSEKKKAKYKAREAALKAQSER [E13A], the abundance fitness was -0.205 ± 0.051. For the variant KRPVSAMFIFSEYKRRQLQEERPELSESELTRLLARMWNDLSEKKKAKYKAREAALKAQSER [E13Y], the abundance fitness was -0.29 ± 0.23. The same measure for KRPVSAMFIFSECKRRQLQEERPELSESELTRLLARMWNDLSEKKKAKYKAREAALKAQSER [E13C]: -0.175 ± 0.067; for KRPVSAMFIFSEFKRRQLQEERPELSESELTRLLARMWNDLSEKKKAKYKAREAALKAQSER [E13F]: -0.359 ± 0.13. The same measure for KRPVSAMFIFSVEKRRQLQEERPELSESELTRLLARMWNDLSEKKKAKYKAREAALKAQSER [E12V]: -0.163 ± 0.052; for KRPVSAMFIFSPEKRRQLQEERPELSESELTRLLARMWNDLSEKKKAKYKAREAALKAQSER [E12P]: -0.738 ± 0.04.

With KRPVSAMFIFSGEKRRQLQEERPELSESELTRLLARMWNDLSEKKKAKYKAREAALKAQSER [E12G], the abundance fitness was -0.175 ± 0.056. Regarding KRPVSAMFIFSLEKRRQLQEERPELSESELTRLLARMWNDLSEKKKAKYKAREAALKAQSER [E12L], the abundance fitness was -0.182 ± 0.049.

KRPVSAMFIFSKEKRRQLQEERPELSESELTRLLARMWNDLSEKKKAKYKAREAALKAQSER [E12K]: the abundance fitness was -0.059 ± 0.065. For KRPVSAMFIFSSEKRRQLQEERPELSESELTRLLARMWNDLSEKKKAKYKAREAALKAQSER [E12S], the abundance fitness was -0.028 ± 0.049. Consider KRPVSAMFIFSNEKRRQLQEERPELSESELTRLLARMWNDLSEKKKAKYKAREAALKAQSER [E12N], for which the abundance fitness is -0.048 ± 0.1. As to KRPVSAMFIFSFEKRRQLQEERPELSESELTRLLARMWNDLSEKKKAKYKAREAALKAQSER [E12F], the abundance fitness is -0.315 ± 0.081.

KRPVSAMFIFSHEKRRQLQEERPELSESELTRLLARMWNDLSEKKKAKYKAREAALKAQSER [E12H]: the abundance fitness was -0.169 ± 0.09.

Consider KRPVSAMFIFSIEKRRQLQEERPELSESELTRLLARMWNDLSEKKKAKYKAREAALKAQSER [E12I], for which the abundance fitness was -0.201 ± 0.1. With KRPVSAMFIFSYEKRRQLQEERPELSESELTRLLARMWNDLSEKKKAKYKAREAALKAQSER [E12Y], the abundance fitness is -0.251 ± 0.087. As to KRPVSAMFIFSCEKRRQLQEERPELSESELTRLLARMWNDLSEKKKAKYKAREAALKAQSER [E12C], the abundance fitness was -0.19 ± 0.11. The same measure for KRPVSAMFIFSMEKRRQLQEERPELSESELTRLLARMWNDLSEKKKAKYKAREAALKAQSER [E12M]: -0.089 ± 0.072. In the case of KRPVSAMFIFSTEKRRQLQEERPELSESELTRLLARMWNDLSEKKKAKYKAREAALKAQSER [E12T], the abundance fitness was -0.069 ± 0.078.

Turning to KRPVSAMFIFSDEKRRQLQEERPELSESELTRLLARMWNDLSEKKKAKYKAREAALKAQSER [E12D], the abundance fitness was -0.092 ± 0.098.

As for KRPVSAMFIFSQEKRRQLQEERPELSESELTRLLARMWNDLSEKKKAKYKAREAALKAQSER [E12Q], the abundance fitness is -0.13 ± 0.065. The result for KRPVSAMFIFSWEKRRQLQEERPELSESELTRLLARMWNDLSEKKKAKYKAREAALKAQSER [E12W] reads -0.253 ± 0.059.
